Test results taken from the nanobody polyreactivity screen of Harvey et al. (2022).

Assay: yeast display, Sf9 membrane polyspecificity reagent, FACS + sequencing; frameworks hold sequencing errors
Outline: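 Galactose induction of a Saccharomyces cerevisiae BJ5465 synthetic nanobody display library ran 36–48 hours. The cells were then stained for 1 hour at 4 °C with 10% biotinylated, detergent-solubilized Sf9 membrane reagent, pulled down on streptavidin microbeads and FACS-sorted into low and high (top ~1%) gates on expression and reagent-binding fluorescence. Labels for polyreactivity follow the gate of origin.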

Sequence | polyreactivity (PSR sort gate)
HVQLVESAGGLVPAGGSLRLSCAASGFIVWWYPMGWYRQAPGKERELVASITRGGRTNYADSVKGRFTISRDNAKNTVYLHMNSLKPEDTAVYYCAADVLLSRSNTPQRPSRLYYWGQVTQVTVSS | high polyreactivity
HVQLVESGGGLVQAGASLRLSCAASGRIFGRNAMGWYRQAPGKERELVAAISGNGGSTYYADSVKGRFTISRDIAKNTVYLQMNSLKPEDTAGYYCATKYFSRMDYWGQGTQVTVSS | high polyreactivity
HVQLVESGGGLVQAGGSLRFSCAASVSTLRWNAMGWYRQAPAKEREMVAAITYSGGSTYYADSVKGLFTISRDNAKNTVYLQMNSLKPEDTAVYYCAADSYRYRPGYGPVLYDYWGQGTQVTVSS | high polyreactivity
HVQLVESGGGLVQAGGSLRLSCAASGFIFKPYDMGLYRQAPGKERELVAAISWTGTSTYYADSVKGRFTISRDNAKNTVYLQINSLKPEDTAVFYCAKRWSAGAQHGFDYWGQGTQVTLSS | low polyreactivity
HVQLVESGGGLVQAGGSLRLSCAASGFIFQSYAMGWYRQAPGKERELVASISASGGSTYYADSVKGRFTISRDNAKNTVYLQMNSLKPEDTAVYYCAAGYWSYWSLRMDYWGQGTQVTVSS | high polyreactivity
HVQLVESGGGLVQAGGSLRLSCAASGFIIGYYAMGWYRQAPGKERELVASITWSTTSTYYADSVKGRFTISRDNAKNTVYLQMNSLKPEDTAVYYCAADLQSKLPSSIYIGDYWGQGTQVTVSS | low polyreactivity
HVQLVESGGGLVQAGGSLRLSCAASGFTFARYAMGWYRQAPGKERDLVATITRSGDSTNYADSVKGRFTISRDNAKNTVYLQMNSLKPEDTAVYYCNRRYPIWYRTMNYWGQGTQVTVSS | high polyreactivity
HVQLVESGGGLVQAGGSLRLSCAASGFTSYLYTMGWYRQAPGKERELVAAISNSGGNTYYADSVKGRFTISRDNAKNTVYLQMNSLKPEDTAVYYCAARLFAAKYRYGYWGQGTQVTVSS | high polyreactivity
HVQLVESGGGLVQAGGSLRLSCAASGIIFITNAMGWYRQAPGKERELVAAISSTVSTYYADSVKGRFTISRDKAKNTVYLQMNRLKPADTAVYYCAAEWGLTQGESIYDYWGQGTQVTVSS | low polyreactivity
HVQLVESGGGLVQAGGSLRLSCAASGIIFNLYAMGWYRQAPVKERELFAAISWSGGSTYYADSVKGRFTISRDNAKNTVYLKMNSLKPEDTAVYYCAAQRSVFKSFRTTYVRYDYWGQGTQVTVSS | high polyreactivity
HVQLVESGGGLVQAGGSLRLSCAASGLIFKRYAIGGYRKAPGKERELVAAISYSGGSTYYEDSVKGRFTISRDYAKNTVYLQMNSLKPEDTAVYYCNAQSYRSDSAYHYKYDYWGQGTQVTVSS | high polyreactivity
HVQLVESGGGLVQAGGSLRLSCAASGLTFQYNAMGWYRQAPGKERELVATISQSGGSTYYADSVKGRFTISRDNAKNTVYLQMNSLKPEDTAVYYCAAYRAWTWRIRYDYWGQGTQVTVSS | low polyreactivity
HVQLVESGGGLVQAGGSLRLSCAASGRIFGAYAMGWYRQAPGKEREFVAAITSRGGNTYYADSVKGRFTISRDNAKNTVYLQMNSLIPEDTAVYYCAARHDKRRQYYVGQSAFDYWGQGTQVTVSS | low polyreactivity
HVQLVESGGGLVQAGGSLRLSCAASGRIFPGYAMGWYRQAPGKERELVAGISNDASTNYADSVKGRFTISRDNAKNTVYLQMNSLKPEDTAVYYCAAEIYYLSVPRYDYWGQGTQVTVSS | low polyreactivity
HVQLVESGGGLVQAGGSLRLSCAASGRIFSVYTMGWYRQAPGKDRELVATISSGGRTNYADSVKGRFTISRDNAKNTVYLQMNSLKPEDTAVYYCAAVPYGFVGYDDYWGQGTQVTVSS | low polyreactivity
HVQLVESGGGLVQAGGSLRLSCAASGRIFYYNGMGWYRPAPGKERELVAAITPSDTSTYYAVSVKGRFTISRDNAKNTVYLQMNSLKPEDTAVYYCNADYDNHEMDYWGQGTQVTVSS | low polyreactivity
HVQLVESGGGLVQAGGSLRLSCAASGRILRRNAMGWYRQAPGKEREFVAAITWRGGSTYYADSVKGRFTISRDNAKNTVYLQMNSLKPEDTAVYYCAADTYSVEYVLPYYYWGQGTQVTVSS | high polyreactivity
HVQLVESGGGLVQAGGSLRLSCAASGRNFIYNAMGWSSPAPGTDRELVAAINRSGVSTHYADSVKGRFTISRDNAKKTVYLQMNSLKPEDTAVEYCARTVYGARSYDYWGQGTQVTVSS | low polyreactivity
HVQLVESGGGLVQAGGSLRLSCAASGRTFVVYAMGWDRQAPGKERELVAAITSSGGSTYYADSVKGRFTISRDNAKNTVYLQMNSLKPEDTAVYYCNRVYVRAGVSVAYNYWGQGTQVTVSS | high polyreactivity
HVQLVESGGGLVQAGGSLRLSCAASGSIFIKYAMGWYRQAPGKERELVAAISRRGGSTYYADSVKGRFTISRDNAKNTVYLQMNSLKPEDTAVYYCAAVNIRFGYWGQGTQVTVSS | high polyreactivity
HVQLVESGGGLVQAGGSLRLSCAASGSTFYNNAMGWTRQAPGKERELVAAITSSVGSTQYADSVKGRFTISRDKAKNTVYLPMNSLKPADTAVYYCAATFGYGRYGYWGQGTQVTVSS | low polyreactivity
HVQLVESGGGLVQAGGSLRLSCAASGSTLYWNAIGWYRQAPGKEMELVASITSSGGSTYYADSVKGRFTISRDNAKNTVYLQMNSLKPEDTAVYYCATESWWRYSEYYYWGQGTQVTVSS | low polyreactivity

Sequence | polyreactivity (PSR sort gate)
HVQLVESGGGLVQAGGSLRLSCAASGTFTYYAMGWYRQAPGKERELVAAITWRGGNTYYADSVKGRFTISRDNAKNTVYLQMNSLKPEDTAVYYCATDYWYIRWGGYYWGQGTQVTVSS | low polyreactivity
HVQLVESGGGLVQAGGSLRLSCAASGYILDRNAMGWYRQAPGKESELVAVISWGGTRTYYADSVKGRFTISRDNAKNTVYLQMNSLKPEVTAVYYCARYPYYYGYAGRYDYWGQGTQVTVSS | high polyreactivity
HVQLVESGGGLVQAGGSLRVSCAASGSILTRNAMGWYRQAPGKERELVAAITGSGGRTYYADSVKGRFTISRDNAKNTVDLQMNSLKPEDTAVYYCAAGWRFGRYSGDYWGQGTQVTVSS | high polyreactivity
HVQLVETGGGLVQAGGSLRLSCAASGSTFYIYAMGCYRPAPGKEREFVAAIDFSGSSTYADSVKGRFTISRDNAKNTVYLQMNSLKPEDTAVYYCSARWYLTGGWTWVSFSHDYWGQGTQVTVSS | low polyreactivity
HVQQQESGGGLVQAGGSLRLSCAASGYISVVIGMCWYRQSPGKERELVASIAYGAITYYTDRVKGRFTISRDYAKNTEYLQMNSLKAEDTAVYYCAADQPPLAYHWYWGQGTQATVSS | high polyreactivity
HVQRVESGGGLVQAGASLRLSCAASGGIFSPNAMGWYRQAPGKERELVAAISSNGGSTNYADSVKGRFTISRDNAKNTVYLQMNSLKPEDTAVYYCAGLQKRRSYWRPFYWGQGTQVTVSS | low polyreactivity
IIQAGGSLRLSCAASGGTFFVYMGWYRQAPGKERELVADISGFGGGTYYADSVKGRFTISRDNAKNTVYLQMNSLKPEYTAVYYCATVVPTGIIRMYWGQGTQVTVSS | low polyreactivity
IIQEGGSLRLSCAASGRTFSGYAMGWYRQAPGKERELIADITSGGSTYYADSVKGRFTISRDNAKNTVYLQMNSLKPEDTAVYYCAAERQIRSFWSSRTYEFGYWGQGTQVTVSS | low polyreactivity
KFQLVESGGGLVQAVGSLRLSCDASGRTFYYYDMGWYRQAPGKERELVAAITWDGGRTYYADSVMGRFTISRDNAKNTVYLQMNSLKPEDTAVYYCNADDFFEILGECTLMDYWGQGTQVTVSS | low polyreactivity
KVHLVDSGGRLVQAGGSLRLSCSASGSIFYVYAMGWYRQAPGTERELVATISSSAGSTYYAYSVKGRFTISRDNAKNTVNLQMYSLNPVDTAVYYCYADSFLSWVYRYVYYVSGLWGQGTQVTVSS | low polyreactivity
KVQLVESGAGLVQAGGSLRLSCAASGITFVRYVMGWYRQAPGKERELVAAISNSGGRTYYADSVKGRFTISRDNAKNTVYLQMNSLKPEDTAVYYCARRAGSYPYGYTGYDYWGQGTLVTVSS | high polyreactivity
KVQLVESGGGLVQAGGSLRISCAASGSIFGYYTMGWYRQAPGKERELVARITRGGSTYYADSVKGRFTISRDNAKNTVYLHMNSLKPEDTAVYFCNADSRYRYEYWGLGTQVTVSS | low polyreactivity
KVQLVESGGGLVQAGGSLRITCAASGSNQASNAMGWYRQAPGKERELVAAIRVSGASTYYADSVKGRFTISRDNAKNTVYLQMKSLKPEYNAVYYCAADYQFGVIYYYWGQGTQVTLSS | low polyreactivity
KVQLVESGGGLVQAGGSLRLSCAASGLTFSYYAMGWYRQAPGKERELVAAITRSGTRTYYADSVKGRFTISRDNAKNTVYLQMNSLKPEDTAVYYCARYLRGDFQQGEHWGQGTQVTVSS | high polyreactivity
KVQLVESGGGLVQAGGSLRLSCAASGSIFGDNAMGWYRQAPGKERELVAAINYNGGRTYYADSVKGRFTISRDNAKNTVYLQMNSLKPEDTAVYYCAKDNYQAPVQQYPFDYWGQGSQVTVSS | low polyreactivity
KVQLVESGGGLVQAGGSLRLSCAASGSIFYYYAMGWYRQAPGKERELVAAISERGAYVLRRPVKGRFTISRDNAKNTVYLQMNSLKPEDTAVYYCAVGFNFQGWRYDYWGQGTQVNVSS | high polyreactivity
KVQLVESGGGLVQAGGSLRLSCAASGSTFPPNAMGWNRQAPGKERELVAVISYSDGSTYYADSVKGRFTISRDNAKNTVYLQMNSLKPEDTAVYYCAAYSGYGGVSMYYWGQGTQVTVSS | low polyreactivity
KYYADSVKGRFTISRDNAKNTVYLQMNSLNPEDTAVYYCNAGYYISFNPYDYWGQGTQVTVSW | low polyreactivity
LEQLVESGGGLVHAGGSLRLSCAASRSNFPQYTLGWNRQAPVKERELVAAISNYGSSTYYADSEKGRFTISRDYAKNSVSLQMNSLKPEDTAVYECNADDYGYYPGVNYWGQGTQVTVSS | low polyreactivity
LVQLQESGGGLVLAGGGLRLSCAASGNIFTYVIMGWYRQPPGKERELVAAITYGTITNYADSVKGPFTISRDNAKNTVYLQMNCLKPEDTAVYHCAVQSPRIEPRLYYWGQGTQVTVSS | high polyreactivity
LVQLQESRGGLVLAGGGLRLSCPESVNIFTYVIMGWYRQQPGKERELVAAITYGTFTNYADSVKGPFTISRDNAKNTVYLHMNCLKPEDTAVYHCAVQSPLIEPRLYYWGQGTQVTVSS | high polyreactivity
